Experimental data published in patent US20210363266A1.

Experiments:
[1] = target: human 4-1BB on the reporter cell strain HEK293F-h4-1BB-NFkB (human) (UniProt Q07011); test: cell-based or functional assay
[2] = target: human 4-1BB His protein (Sinobiological, Beijing #10041-H08H) (human) (UniProt Q07011); test: capture ELISA, antibody captured, biotinylated 4-1BB-his
Chain of human 4-1BB His protein (Sinobiological, Beijing #10041-H08H) (human) (Q07011 24-186 limits assumed): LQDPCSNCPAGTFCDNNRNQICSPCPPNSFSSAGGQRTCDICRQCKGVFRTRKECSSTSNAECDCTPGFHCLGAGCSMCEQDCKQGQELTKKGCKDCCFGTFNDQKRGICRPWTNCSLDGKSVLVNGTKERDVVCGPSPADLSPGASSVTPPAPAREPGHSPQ

Chain of human 4-1BB on the reporter cell strain HEK293F-h4-1BB-NFkB (human) (Q07011 24-255): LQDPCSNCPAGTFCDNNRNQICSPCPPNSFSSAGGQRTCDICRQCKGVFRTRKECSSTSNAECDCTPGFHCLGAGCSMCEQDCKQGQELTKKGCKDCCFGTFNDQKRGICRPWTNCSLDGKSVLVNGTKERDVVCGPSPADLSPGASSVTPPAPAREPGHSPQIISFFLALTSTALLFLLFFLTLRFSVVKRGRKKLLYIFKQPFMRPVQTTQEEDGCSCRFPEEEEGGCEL
Chain of Urelumab (BMS) (antibody) (VH): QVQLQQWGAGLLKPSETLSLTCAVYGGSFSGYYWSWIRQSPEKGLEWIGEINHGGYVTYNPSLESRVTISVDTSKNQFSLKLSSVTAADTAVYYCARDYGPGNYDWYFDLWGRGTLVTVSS
Chain of Urelumab (BMS) (antibody) (VL): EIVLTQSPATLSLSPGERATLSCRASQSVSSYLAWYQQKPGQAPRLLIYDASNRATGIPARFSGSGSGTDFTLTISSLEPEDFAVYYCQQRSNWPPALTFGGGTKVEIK

Substance	luciferase activity (antibody at 10 nM) [1]	EC50 [2]
MOR7480 (Pfizer) (antibody)	1000	
hIgG (antibody)	290	
Urelumab (BMS) (antibody)	2190	0.192 µg/mL
